Test results: US20240309087A1

Legend:
[1] = target: human CD112R on CHO-CD112R cells (human) (UniProt Q6DKI7); assay: FACS binding to CHO-CD112R cells, MFI-APC, fit of the negative control; unit from the axis
[2] = target: human CD112R on CHO-CD112R cells (human) (UniProt Q6DKI7); assay: FACS binding to CHO-CD112R cells, MFI-APC, ambiguous fit of the negative control; unit from the axis

Sequence of human CD112R on CHO-CD112R cells (human) (Q6DKI7 41-326 limits assumed): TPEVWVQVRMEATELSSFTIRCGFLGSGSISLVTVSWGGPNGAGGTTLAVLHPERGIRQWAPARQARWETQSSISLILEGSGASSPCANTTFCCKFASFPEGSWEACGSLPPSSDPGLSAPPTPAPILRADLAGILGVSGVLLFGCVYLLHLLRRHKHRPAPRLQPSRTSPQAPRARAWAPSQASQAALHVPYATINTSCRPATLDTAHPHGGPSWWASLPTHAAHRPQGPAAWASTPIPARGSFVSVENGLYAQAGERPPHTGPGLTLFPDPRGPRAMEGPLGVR

anti-KLH hu-IgG4 antibody was tested, and the EC50 [1] was 26.3 µg/mL and the EC50 [2] was 4050 µg/mL.
